Measurements as given in the supplement of paper PMC5998384.

Assays:
HeLa Kyoto [1] = assay: thermal stability score vs G1/S (z-score of summed log2 fold changes over temperatures); higher = more thermally stable than in G1/S
HeLa Kyoto [2] = assay: solubility in G1/S (NP-40 vs SDS abundance) (log2 ratio); higher = more soluble; settings: cell cycle stage: G1/S
HeLa Kyoto [3] = assay: solubility change mitosis vs G1/S (difference of NP-40 vs SDS log2 ratios) (log2 ratio difference); higher = more soluble in mitosis
HeLa Kyoto [4] = assay: melting temperature (median over replicates), in situ; higher = more thermally stable
[5] = cell cycle stage: early G1 (4.5 h after nocodazole release)
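Throughout, for melting temperature (median over replicates), in situ: HeLa Kyoto cells synchronized by double thymidine or nocodazole block, proteins quantified by TMT10plex mass spectrometry, three independent biological replicates.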
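Throughout, for solubility change mitosis vs G1/S (difference of NP-40 vs SDS log2 ratios): synchronized HeLa Kyoto cells (double thymidine block for G1/S, nocodazole release for mitosis), protein amounts in NP-40 versus SDS lysates quantified by mass spectrometry, three biological replicates.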
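Throughout, for solubility in G1/S (NP-40 vs SDS abundance): HeLa Kyoto cells arrested at G1/S by double thymidine block, proteins quantified by TMT10plex mass spectrometry in mild NP-40 versus SDS extracts, three biological replicates.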
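Throughout, for thermal stability score vs G1/S (z-score of summed log2 fold changes over temperatures): synchronized HeLa Kyoto cells, proteins quantified by TMT10plex mass spectrometry, three biological replicates, mitosis taken 0.5 h after nocodazole release, G1/S directly after double thymidine block.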

Row | Sequence | thermal stability score (HeLa Kyoto [1]; [5]) | thermal stability score (HeLa Kyoto [1]; cell cycle stage: mitosis) | solubility in G1/S (log2) (HeLa Kyoto [2]) | solubility change mitosis (log2) (HeLa Kyoto [3]) | melting temperature (HeLa Kyoto [4]; cell cycle stage: G1/S) [°C] | melting temperature (HeLa Kyoto [4]; cell cycle stage: mitosis) [°C]
1 | MNSIKNVPARVLSRRPGHSLEAEREQFDKTQAISISKAINTQEAPVKEKHARRIILGTHHEKGAFTFWSYAIGLPLPSSSILSWKFCHVLHKVLRDGHPNVLHDCQRYRSNIREIGDLWGHLHDRYGQLVNVYTKLLLTKISFHLKHPQFPAGLEVTDEVLEKAAGTDVNNIFQLTVEMFDYMDCELKLSESVFRQLNTAIAVSQMSSGQCRLAPLIQVIQDCSHLYHYTVKLLFKLHSCLPADTLQGHRDRFHEQFHSLRNFFRRASDMLYFKRLIQIPRLPEGPPNFLRASALAEHIKPVVVIPEEAPEDEEPENLIEISTGPPAGEPVVVADLFDQTFGPPNGSVKDDRDLQIESLKREVEMLRSELEKIKLEAQRYIAQLKSQVNALEGELEEQRKQKQKALVDNEQLRHELAQLRAAQLEGERSQGLREEAERKASATEARYNKLKEKHSELVHVHAELLRKNADTAKQLTVTQQSQEEVARVKEQLAFQVEQVKRESELKLEEKSDQLEKLKRELEAKAGELARAQEALSHTEQSKSELSSRLDTLSAEKDALSGAVRQREADLLAAQSLVRETEAALSREQQRSSQEQGELQGRLAERESQEQGLRQRLLDEQFAVLRGAAAEAAGILQDAVSKLDDPLHLRCTSSPDYLVSRAQEALDAVSTLEEGHAQYLTSLADASALVAALTRFSHLAADTIINGGATSHLAPTDPADRLIDTCRECGARALELMGQLQDQQALRHMQASLVRTPLQGILQLGQELKPKSLDVRQEELGAVVDKEMAATSAAIEDAVRRIEDMMNQARHASSGVKLEVNERILNSCTDLMKAIRLLVTTSTSLQKEIVESGRGAATQQEFYAKNSRWTEGLISASKAVGWGATQLVEAADKVVLHTGKYEELIVCSHEIAASTAQLVAASKVKANKHSPHLSRLQECSRTVNERAANVVASTKSGQEQIEDRDTMDFSGLSLIKLKKQEMETQVRVLELEKTLEAERMRLGELRKQHYVLAGASGSPGEEVAIRPSTAPRSVTTKKPPLAQKPSVAPRQDHQLDKKDGIYPAQLVNY [HIP1R] | -0.263 | 0.371 | -0.0581 | -0.0177 | 50 | 49.5
2 | MNSMKTEENKSFSAMEDDQRTRPEVSKDTVMKQTHADTPVDHCLSGIRKCSSTFKLKSEVNKHETALEMQNPNLNNKECCFTFTLNGNSRKLDRSVFTAYGKPSESIYSALSANDYFSERIKNQFNKNIIVYEEKTIDGHINLGMPLKCLPSDSHFKITFGQRKSSKEDGHILRQCENPNMECILFHVVAIGRTRKKIVKINELHEKGSKLCIYALKGETIEGALCKDGRFRSDIGEFEWKLKEGHKKIYGKQSMVDEVSGKVLEMDISKKKALQQKDIHKKIKQNESATDEINHQSLIQSKKKVHKPKKDGETKDVEHSREQILPPQDLSHYIKDKTRQTIPRIRNYYFCSLPRKYRQINSQVRRRPHLGRRYAINLDVQKEAINLLKNYQTLNEAIMHQYPNFKEEAQWVRKYFREEQKRMNLSPAKQFNIYKKDFGKMTANSVSVATCEQLTYYSKSVGFMQWDNNGNTGNATCFVFNGGYIFTCRHVVHLMVGKNTHPSLWPDIISKCAKVTFTYTEFCPTPDNWFSIEPWLKVSNENLDYAILKLKENGNAFPPGLWRQISPQPSTGLIYLIGHPEGQIKKIDGCTVIPLNERLKKYPNDCQDGLVDLYDTTSNVYCMFTQRSFLSEVWNTHTLSYDTCFSDGSSGSPVFNASGKLVALHTFGLFYQRGFNVHALIEFGYSMDSILCDIKKTNESLYKSLNDEKLETYDEEKGKQESSLQDHQIEPMEC [FAM111B] | 2.69 | 4.09 | -0.274 | -7.96e-05 | 46.9 | 50.3
3 | MNTADQARVGPADDGPAPSGEEEGEGGGEAGGKEPAADAAPGPSAAFRLMVTRREPAVKLQYAVSGLEPLAWSEDHRVSVSTARSIAVLELICDVHNPGQDLVIHRTSVPAPLNSCLLKVGSKTEVAECKEKFAASKDPTVSQTFMLDRVFNPEGKALPPMRGFKYTSWSPMGCDANGRCLLAALTMDNRLTIQANLNRLQWVQLVDLTEIYGERLYETSYRLSKNEAPEGNLGDFAEFQRRHSMQTPVRMEWSGICTTQQVKHNNECRDVGSVLLAVLFENGNIAVWQFQLPFVGKESISSCNTIESGITSPSVLFWWEYEHNNRKMSGLIVGSAFGPIKILPVNLKAVKGYFTLRQPVILWKEMDQLPVHSIKCVPLYHPYQKCSCSLVVAARGSYVFWCLLLISKAGLNVHNSHVTGLHSLPIVSMTADKQNGTVYTCSSDGKVRQLIPIFTDVALKFEHQLIKLSDVFGSVRTHGIAVSPCGAYLAIITTEGMINGLHPVNKNYQVQFVTLKTFEEAAAQLLESSVQNLFKQVDLIDLVRWKILKDKHIPQFLQEALEKKIESSGVTYFWRFKLFLLRILYQSMQKTPSEALWKPTHEDSKILLVDSPGMGNADDEQQEEGTSSKQVVKQGLQERSKEGDVEEPTDDSLPTTGDAGGREPMEEKLLEIQGKIEAVEMHLTREHMKRVLGEVYLHTWITENTSIPTRGLCNFLMSDEEYDDRTARVLIGHISKKMNKQTFPEHCSLCKEILPFTDRKQAVCSNGHIWLRCFLTYQSCQSLIYRRCLLHDSIARHPAPEDPDWIKRLLQSPCPFCDSPVF [GTF3C4] | 1.42 | 3.08 | -0.0178 | -0.0904 | 49.4 | 49.9
4 | MPAESGKRFKPSKYVPVSAAAIFLVGATTLFFAFTCPGLSLYVSPAVPIYNAIMFLFVLANFSMATFMDPGIFPRAEEDEDKEDDFRAPLYKTVEIKGIQVRMKWCATCRFYRPPRCSHCSVCDNCVEEFDHHCPWVNNCIGRRNYRYFFLFLLSLTAHIMGVFGFGLLYVLYHIEELSGVRTAVTMAVMCVAGLFFIPVAGLTGFHVVLVARGRTTNEQVTGKFRGGVNPFTNGCCNNVSRVLCSSPAPRYLGRPKKEKTIVIRPPFLRPEVSDGQITVKIMDNGIQGELRRTKSKGSLEITESQSADAEPPPPPKPDLSRYTGLRTHLGLATNEDSSLLAKDSPPTPTMYKYRPGYSSSSTSAAMPHSSSAKLSRGDSLKEPTSIAESSRHPSYRSEPSLEPESFRSPTFGKSFHFDPLSSGSRSSSLKSAQGTGFELGQLQSIRSEGTTSTSYKSLANQTRNGSLSYDSLLTPSDSPDFESVQAGPEPDPPLGYTSPFLSARLAQQREAERHPRLVPTGPTHREPSPVRYDNLSRHIVASLQEREKLLRQSPPLPGREEEPGLGDSGIQSTPGSGHAPRTSSSSDDSKRSPLGKTPLGRPAVPRFGKPDGLRGRGVGSPEPGPTAPYLGRSMSYSSQKAQPGVSETEEVALQPLLTPKDEVQLKTTYSKSNGQPKSLGSASPGPGQPPLSSPTRGGVKKVSGVGGTTYEISV [ZDHHC5] | -2.84 | 1.5 | -0.172 | 0.124 | 59.1 | 62.7
